Experimental findings from article PMC4898653 (2017) are described below.

The target of one assay is T1, mesotrypsin (Homo sapiens, UniProt P35030).
T1 chain: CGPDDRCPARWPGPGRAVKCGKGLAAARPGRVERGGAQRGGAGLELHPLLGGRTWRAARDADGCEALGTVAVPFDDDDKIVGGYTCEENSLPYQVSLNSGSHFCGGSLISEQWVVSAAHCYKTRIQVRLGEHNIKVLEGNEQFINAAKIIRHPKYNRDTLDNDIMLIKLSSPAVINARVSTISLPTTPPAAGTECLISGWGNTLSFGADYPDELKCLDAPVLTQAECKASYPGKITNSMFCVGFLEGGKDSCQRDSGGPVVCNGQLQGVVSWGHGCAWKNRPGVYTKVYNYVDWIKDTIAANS
Put plainly: competitive inhibition of Z-GPR-pNA cleavage.

In the next assay the target is cationic trypsin (Homo sapiens, UniProt P07477). The assay can be described thus: enzyme inhibition.
A further assay has as its target T2, anionic trypsin (Homo sapiens, UniProt P07478).
T2 chain: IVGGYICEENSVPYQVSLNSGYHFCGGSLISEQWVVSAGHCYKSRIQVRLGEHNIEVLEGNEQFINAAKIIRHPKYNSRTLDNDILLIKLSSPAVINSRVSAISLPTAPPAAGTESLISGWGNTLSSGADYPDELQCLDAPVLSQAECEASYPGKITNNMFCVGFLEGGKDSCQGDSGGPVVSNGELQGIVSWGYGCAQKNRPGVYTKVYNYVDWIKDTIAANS
The assay can be described thus: enzyme inhibition.

The next assay addresses kallikrein-6 (Homo sapiens, UniProt Q92876). The assay can be described thus: enzyme inhibition.
Another assay addresses factor XIa (Homo sapiens, UniProt P03951). Put plainly: enzyme inhibition.

Sequence of factor XIa (P03951 388-625): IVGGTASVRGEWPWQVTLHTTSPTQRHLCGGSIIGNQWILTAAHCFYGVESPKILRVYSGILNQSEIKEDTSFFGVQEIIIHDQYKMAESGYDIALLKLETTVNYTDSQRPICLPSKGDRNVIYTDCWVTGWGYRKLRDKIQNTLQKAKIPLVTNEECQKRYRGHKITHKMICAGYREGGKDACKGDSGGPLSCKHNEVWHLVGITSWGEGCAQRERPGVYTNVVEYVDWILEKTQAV

B1: APPI Kunitz domain (protein)
chain: VREVCSEQAETGPCRAMISRWYFDVTEGKCAPFFYGGCGGNRNNFDTEEYCMAVCGSA
For B1, the inhibition constant Ki with mesotrypsin was 131000 pM; with cationic trypsin it was 6.27 pM; with anionic trypsin, 1.74 pM; with kallikrein-6 it was 2230 pM; in the assay with factor XIa, 410 pM.

The term Ki denotes a measure of affinity in units of concentration, obtained from inhibition or displacement. High values mean weaker binding, low ones tighter binding.
